± gives the standard deviation of the averaged measurements.
Experiments:
[1] = tested on: VchCAST RNA-guided transposition machinery (E. coli BL21(DE3) host, lacZ target); test: relative integration efficiency (T-RL orientation) vs wild-type transposon end (log2 (normalized fold change)); transposon end mutated: right end (5 bp flank + 75 bp right end); higher = more efficient transposition
In short: (§1)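 Barcode abundances in input plasmids and in genomic integration junctions were obtained by PCR amplification and Illumina sequencing. These came from E. coli BL21(DE3) co-transformed with a T7-driven effector plasmid and a pUC57 donor carrying 1549 left-end or 1849 right-end transposon variants, then plated with 0.1 mM IPTG at 37°C for 18 h. Relative integration efficiency is the output/input fold change, normalised to reference barcodes and log-transformed.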

[2] = tested on: VchCAST RNA-guided transposition machinery (E. coli BL21(DE3) host, lacZ target); test: relative integration efficiency (T-LR orientation) vs wild-type transposon end (log2 (normalized fold change)); transposon end mutated: right end (5 bp flank + 75 bp right end); higher = more efficient transposition
In short: as §1

## ACATTTGTTGATACAACCATAAAGTGATATTTACACCCATAAATTGATATTGCTCACAACCATAAAATGATAATTACTCTGATCATAGTCAGACCAACATTGCTACGACCCGTATTCGCACCGACAC
[1]
  relative integration efficiency (log2): -0.254 ± 0.19
[2]
  relative integration efficiency (log2): 0.169 ± 0.17

## ACATTTGTTGATACAACCATAAAGTGATATTTACACCCATAAATTGATATTGCTCACAACCATAAAGTGATATTTACTCTGATCATAGTCAGACCAACATTGCTACGACCCGTATTCGCACCGACAC
[1]
  relative integration efficiency (log2): -0.237 ± 0.17
[2]
  relative integration efficiency (log2): 0.171 ± 0.15

## ACATTTGTTGATACAACCATAAAGTGATATTTACACCCATAAATTGATATTGCTCACAACCATAAGTTGATATTTTCTCTGATCATAGTCAGACCAACATTGCTACGACCCGTATTCGCACCGACAC
[1]
  relative integration efficiency (log2): -0.138 ± 0.13
[2]
  relative integration efficiency (log2): 0.0642 ± 0.26

## ACATTTGTTGATACAACCATAAAGTGATATTTACACCCATAAATTGATATTGCTCACAACCATATATTGATATCTCCTCTGATCATAGTCAGACCAACATTGCTACGACCCGTATTCGCACCGACAC
[1]
  relative integration efficiency (log2): -0.534 ± 0.18
[2]
  relative integration efficiency (log2): 0.671 ± 0.21

## ACATTTGTTGATACAACCATAAAGTGATATTTACACCCATAAATTGATATTGCTCACACCCATAAATTGATAATTACTCTGATCATAGTCAGACCAACATTGCTACGACCCGTATTCGCACCGACAC
[1]
  relative integration efficiency (log2): -0.232 ± 0.12
[2]
  relative integration efficiency (log2): 0.595 ± 0.26

## ACATTTGTTGATACAACCATAAAGTGATATTTACACCCATAAATTGATATTGCTCACACCCATAAATTGATATTGCCTCTGATCATAGTCAGACCAACATTGCTACGACCCGTATTCGCACCGACAC
[1]
  relative integration efficiency (log2): -0.333 ± 0.062
[2]
  relative integration efficiency (log2): 0.438 ± 0.27

## ACATTTGTTGATACAACCATAAAGTGATATTTACACCCATAAATTGATATTGCTCAGTGGGTATTTAACTATAACGCTCTGATCATAGTCAGACCAACATTGCTACGACCCGTATTCGCACCGACAC
[1]
  relative integration efficiency (log2): -0.797 ± 0.16
[2]
  relative integration efficiency (log2): 2.56 ± 0.28

## ACATTTGTTGATACAACCATAAATACTTAATTACACCCATAAATTGATAATTATCACACCCATAAATTGATATTGCCTCTGATCATAGTCAGACCAACATTGCTACGACCCGTATTCGCACCGACAC
[1]
  relative integration efficiency (log2): -2.25 ± 0.17
[2]
  relative integration efficiency (log2): -2.42 ± 0.21

## ACATTTGTTGATACAACCATAAATAGATAATTACACCCATAAATTGATAATTATCACACCCATAAATTGATATTGCCTCTGATCATAGTCAGACCAACATTGCTACGACCCGTATTCGCACCGACAC
[1]
  relative integration efficiency (log2): -0.642 ± 0.046
[2]
  relative integration efficiency (log2): -0.506 ± 0.44

## ACATTTGTTGATACAACCATAAATTGATAATTACACCCATAAAATGATAATTATCACACCCATAAAATGATATTGCCTCTGATCATAGTCAGACCAACATTGCTACGACCCGTATTCGCACCGACAC
[1]
  relative integration efficiency (log2): -0.12 ± 0.2
[2]
  relative integration efficiency (log2): -0.368 ± 0.16

## ACATTTGTTGATACAACCATAACATGATAATTACACCCATAACTTGATAATTATCACACCCATAACTTGATATTGCCTCTGATCATAGTCAGACCAACATTGCTACGACCCGTATTCGCACCGACAC
[1]
  relative integration efficiency (log2): -0.3313 ± 0.00055
[2]
  relative integration efficiency (log2): -0.127 ± 0.35

## ACATTTGTTGATACAACCATAACCGTATAATTACACCCATAAATTGATAATTATCACACCCATAAATTGATATTGCCTCTGATCATAGTCAGACCAACATTGCTACGACCCGTATTCGCACCGACAC
[1]
  relative integration efficiency (log2): -1.41 ± 0.21
[2]
  relative integration efficiency (log2): -1.78 ± 0.49

## ACATTTGTTGATACAACCATAACCGTCGCCGGCACAAACGCCCGGTCGCCGGCGACACAAACGCCCGGTCGCGGTAAGAGGATCATAGTCAGACCAACATTGCTACGACCCGTATTCGCACCGACAC
[1]
  relative integration efficiency (log2): -7.77 ± 0.98
[2]
  relative integration efficiency (log2): -6.09 ± 0.56

## ACATTTGTTGATACAACCATAACCTGATAATTACACCCATAAATTGATAATTATCACACCCATAAATTGATATTGCCTCTGATCATAGTCAGACCAACATTGCTACGACCCGTATTCGCACCGACAC
[1]
  relative integration efficiency (log2): -0.321 ± 0.01
[2]
  relative integration efficiency (log2): -0.337 ± 0.089

## ACATTTGTTGATACAACCATAACCTGATAATTACACCCATAACGTGATAATTATCACACCCATAACGTGATATTGCCTCTGATCATAGTCAGACCAACATTGCTACGACCCGTATTCGCACCGACAC
[1]
  relative integration efficiency (log2): -0.513 ± 0.02
[2]
  relative integration efficiency (log2): -0.339 ± 0.3

## ACATTTGTTGATACAACCATAAGTTGATATTTTCAACCATAAAATGATAATTATCACAACCATAAAATGATAATTACTCTGATCATAGTCAGACCAACATTGCTACGACCCGTATTCGCACCGACAC
[1]
  relative integration efficiency (log2): -0.00738 ± 0.052
[2]
  relative integration efficiency (log2): -0.774 ± 0.049

## ACATTTGTTGATACAACCATAAGTTGATATTTTCAACCATAAAATGATAATTATCACAACCATAAAGTGATATTTACTCTGATCATAGTCAGACCAACATTGCTACGACCCGTATTCGCACCGACAC
[1]
  relative integration efficiency (log2): 0.0134 ± 0.036
[2]
  relative integration efficiency (log2): -0.26 ± 0.094

## ACATTTGTTGATACAACCATAAGTTGATATTTTCAACCATAAAATGATAATTATCACAACCATAAGTTGATATTTTCTCTGATCATAGTCAGACCAACATTGCTACGACCCGTATTCGCACCGACAC
[1]
  relative integration efficiency (log2): -0.233 ± 0.067
[2]
  relative integration efficiency (log2): -0.119 ± 0.45

## ACATTTGTTGATACAACCATAAGTTGATATTTTCAACCATAAAATGATAATTATCACAACCATATATTGATATCTCCTCTGATCATAGTCAGACCAACATTGCTACGACCCGTATTCGCACCGACAC
[1]
  relative integration efficiency (log2): -0.078 ± 0.041
[2]
  relative integration efficiency (log2): 0.0384 ± 0.016

## ACATTTGTTGATACAACCATAAGTTGATATTTTCAACCATAAAATGATAATTATCACACCCATAAATTGATAATTACTCTGATCATAGTCAGACCAACATTGCTACGACCCGTATTCGCACCGACAC
[1]
  relative integration efficiency (log2): -0.162 ± 0.0022
[2]
  relative integration efficiency (log2): -0.376 ± 0.15

## ACATTTGTTGATACAACCATAAGTTGATATTTTCAACCATAAAATGATAATTATCACACCCATAAATTGATATTGCCTCTGATCATAGTCAGACCAACATTGCTACGACCCGTATTCGCACCGACAC
[1]
  relative integration efficiency (log2): 0.367 ± 0.094
[2]
  relative integration efficiency (log2): 0.105 ± 0.58

## ACATTTGTTGATACAACCATAAGTTGATATTTTCAACCATAAAATGATAATTATCAGTGGGTATTTAACTATAACGCTCTGATCATAGTCAGACCAACATTGCTACGACCCGTATTCGCACCGACAC
[1]
  relative integration efficiency (log2): -0.962 ± 0.12
[2]
  relative integration efficiency (log2): 2.48 ± 0.2

## ACATTTGTTGATACAACCATAAGTTGATATTTTCAACCATAAAGTGATATTTATCACAACCATAAAATGATAATTACTCTGATCATAGTCAGACCAACATTGCTACGACCCGTATTCGCACCGACAC
[1]
  relative integration efficiency (log2): -0.0697 ± 0.03
[2]
  relative integration efficiency (log2): -0.435 ± 0.24

## ACATTTGTTGATACAACCATAAGTTGATATTTTCAACCATAAAGTGATATTTATCACAACCATAAAGTGATATTTACTCTGATCATAGTCAGACCAACATTGCTACGACCCGTATTCGCACCGACAC
[1]
  relative integration efficiency (log2): 0.0778 ± 0.073
[2]
  relative integration efficiency (log2): -0.067 ± 0.078

## ACATTTGTTGATACAACCATAAGTTGATATTTTCAACCATAAAGTGATATTTATCACAACCATAAGTTGATATTTTCTCTGATCATAGTCAGACCAACATTGCTACGACCCGTATTCGCACCGACAC
[1]
  relative integration efficiency (log2): 0.119 ± 0.067
[2]
  relative integration efficiency (log2): -0.246 ± 0.14

## ACATTTGTTGATACAACCATAAGTTGATATTTTCAACCATAAAGTGATATTTATCACAACCATATATTGATATCTCCTCTGATCATAGTCAGACCAACATTGCTACGACCCGTATTCGCACCGACAC
[1]
  relative integration efficiency (log2): -0.136 ± 0.014
[2]
  relative integration efficiency (log2): -0.347 ± 0.053

## ACATTTGTTGATACAACCATAAGTTGATATTTTCAACCATAAAGTGATATTTATCACACCCATAAATTGATAATTACTCTGATCATAGTCAGACCAACATTGCTACGACCCGTATTCGCACCGACAC
[1]
  relative integration efficiency (log2): -0.109 ± 0.07
[2]
  relative integration efficiency (log2): -0.0467 ± 0.44

## ACATTTGTTGATACAACCATAAGTTGATATTTTCAACCATAAAGTGATATTTATCACACCCATAAATTGATATTGCCTCTGATCATAGTCAGACCAACATTGCTACGACCCGTATTCGCACCGACAC
[1]
  relative integration efficiency (log2): -0.032 ± 0.064
[2]
  relative integration efficiency (log2): -0.507 ± 0.46

## ACATTTGTTGATACAACCATAAGTTGATATTTTCAACCATAAAGTGATATTTATCAGTGGGTATTTAACTATAACGCTCTGATCATAGTCAGACCAACATTGCTACGACCCGTATTCGCACCGACAC
[1]
  relative integration efficiency (log2): -0.687 ± 0.11
[2]
  relative integration efficiency (log2): 2.69 ± 0.17

## ACATTTGTTGATACAACCATAAGTTGATATTTTCAACCATAAGTTGATATTTTTCACAACCATAAAATGATAATTACTCTGATCATAGTCAGACCAACATTGCTACGACCCGTATTCGCACCGACAC
[1]
  relative integration efficiency (log2): 0.228 ± 0.008
[2]
  relative integration efficiency (log2): -0.0651 ± 0.34

## ACATTTGTTGATACAACCATAAGTTGATATTTTCAACCATAAGTTGATATTTTTCACAACCATAAAGTGATATTTACTCTGATCATAGTCAGACCAACATTGCTACGACCCGTATTCGCACCGACAC
[1]
  relative integration efficiency (log2): 0.196 ± 0.011
[2]
  relative integration efficiency (log2): -0.145 ± 0.024

## ACATTTGTTGATACAACCATAAGTTGATATTTTCAACCATAAGTTGATATTTTTCACAACCATAAGTTGATATTTTCTCTGATCATAGTCAGACCAACATTGCTACGACCCGTATTCGCACCGACAC
[1]
  relative integration efficiency (log2): 0.214 ± 0.079
[2]
  relative integration efficiency (log2): -0.207 ± 0.25

## ACATTTGTTGATACAACCATAAGTTGATATTTTCAACCATAAGTTGATATTTTTCACAACCATATATTGATATCTCCTCTGATCATAGTCAGACCAACATTGCTACGACCCGTATTCGCACCGACAC
[1]
  relative integration efficiency (log2): -0.102 ± 0.021
[2]
  relative integration efficiency (log2): -0.115 ± 0.22

## ACATTTGTTGATACAACCATAAGTTGATATTTTCAACCATAAGTTGATATTTTTCACACCCATAAATTGATAATTACTCTGATCATAGTCAGACCAACATTGCTACGACCCGTATTCGCACCGACAC
[1]
  relative integration efficiency (log2): 0.0466 ± 0.027
[2]
  relative integration efficiency (log2): -0.132 ± 0.17

## ACATTTGTTGATACAACCATAAGTTGATATTTTCAACCATAAGTTGATATTTTTCACACCCATAAATTGATATTGCCTCTGATCATAGTCAGACCAACATTGCTACGACCCGTATTCGCACCGACAC
[1]
  relative integration efficiency (log2): 0.348 ± 0.062
[2]
  relative integration efficiency (log2): 0.248 ± 0.18

From the supplement of paper PMC10201428
